Laboratory results as given in patent US20240376455.

Assays:
Test in all cases: cleavage_in_vitro
[1] = test system: T1, LPG10134 (Brevundimonas vesicularis); conditions: PAM NGG; 37C 120 min
T1 sequence: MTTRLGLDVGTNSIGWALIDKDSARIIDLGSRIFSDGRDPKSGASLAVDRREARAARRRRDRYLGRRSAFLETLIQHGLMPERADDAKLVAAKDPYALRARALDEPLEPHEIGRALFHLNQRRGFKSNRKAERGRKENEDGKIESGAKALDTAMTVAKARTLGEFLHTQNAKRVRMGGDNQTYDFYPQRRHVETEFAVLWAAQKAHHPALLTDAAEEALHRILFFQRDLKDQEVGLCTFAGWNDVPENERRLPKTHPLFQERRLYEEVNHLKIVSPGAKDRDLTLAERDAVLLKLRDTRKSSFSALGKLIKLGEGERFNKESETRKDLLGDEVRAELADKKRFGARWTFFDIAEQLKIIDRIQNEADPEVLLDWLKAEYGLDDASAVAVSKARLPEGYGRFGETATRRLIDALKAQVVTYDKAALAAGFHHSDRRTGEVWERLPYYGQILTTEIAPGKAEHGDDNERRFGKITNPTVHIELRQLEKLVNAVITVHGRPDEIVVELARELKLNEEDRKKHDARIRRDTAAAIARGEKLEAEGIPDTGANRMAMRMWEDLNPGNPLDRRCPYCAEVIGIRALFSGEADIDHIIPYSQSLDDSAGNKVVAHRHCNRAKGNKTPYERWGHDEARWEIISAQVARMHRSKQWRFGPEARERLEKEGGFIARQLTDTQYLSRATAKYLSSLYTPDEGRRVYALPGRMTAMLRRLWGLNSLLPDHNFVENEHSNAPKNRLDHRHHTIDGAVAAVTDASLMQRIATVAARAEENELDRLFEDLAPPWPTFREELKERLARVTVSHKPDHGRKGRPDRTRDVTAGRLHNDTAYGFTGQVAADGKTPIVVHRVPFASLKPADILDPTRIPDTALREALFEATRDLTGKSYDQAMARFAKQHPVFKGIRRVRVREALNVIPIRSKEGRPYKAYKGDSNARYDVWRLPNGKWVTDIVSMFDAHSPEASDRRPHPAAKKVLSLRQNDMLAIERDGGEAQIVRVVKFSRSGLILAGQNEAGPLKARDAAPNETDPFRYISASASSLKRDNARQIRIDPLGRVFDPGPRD

[2] = test system: T2, LPG10155 (Chryseobacterium geocarposphaerae); conditions: PAM SEQ ID 82
T2 sequence: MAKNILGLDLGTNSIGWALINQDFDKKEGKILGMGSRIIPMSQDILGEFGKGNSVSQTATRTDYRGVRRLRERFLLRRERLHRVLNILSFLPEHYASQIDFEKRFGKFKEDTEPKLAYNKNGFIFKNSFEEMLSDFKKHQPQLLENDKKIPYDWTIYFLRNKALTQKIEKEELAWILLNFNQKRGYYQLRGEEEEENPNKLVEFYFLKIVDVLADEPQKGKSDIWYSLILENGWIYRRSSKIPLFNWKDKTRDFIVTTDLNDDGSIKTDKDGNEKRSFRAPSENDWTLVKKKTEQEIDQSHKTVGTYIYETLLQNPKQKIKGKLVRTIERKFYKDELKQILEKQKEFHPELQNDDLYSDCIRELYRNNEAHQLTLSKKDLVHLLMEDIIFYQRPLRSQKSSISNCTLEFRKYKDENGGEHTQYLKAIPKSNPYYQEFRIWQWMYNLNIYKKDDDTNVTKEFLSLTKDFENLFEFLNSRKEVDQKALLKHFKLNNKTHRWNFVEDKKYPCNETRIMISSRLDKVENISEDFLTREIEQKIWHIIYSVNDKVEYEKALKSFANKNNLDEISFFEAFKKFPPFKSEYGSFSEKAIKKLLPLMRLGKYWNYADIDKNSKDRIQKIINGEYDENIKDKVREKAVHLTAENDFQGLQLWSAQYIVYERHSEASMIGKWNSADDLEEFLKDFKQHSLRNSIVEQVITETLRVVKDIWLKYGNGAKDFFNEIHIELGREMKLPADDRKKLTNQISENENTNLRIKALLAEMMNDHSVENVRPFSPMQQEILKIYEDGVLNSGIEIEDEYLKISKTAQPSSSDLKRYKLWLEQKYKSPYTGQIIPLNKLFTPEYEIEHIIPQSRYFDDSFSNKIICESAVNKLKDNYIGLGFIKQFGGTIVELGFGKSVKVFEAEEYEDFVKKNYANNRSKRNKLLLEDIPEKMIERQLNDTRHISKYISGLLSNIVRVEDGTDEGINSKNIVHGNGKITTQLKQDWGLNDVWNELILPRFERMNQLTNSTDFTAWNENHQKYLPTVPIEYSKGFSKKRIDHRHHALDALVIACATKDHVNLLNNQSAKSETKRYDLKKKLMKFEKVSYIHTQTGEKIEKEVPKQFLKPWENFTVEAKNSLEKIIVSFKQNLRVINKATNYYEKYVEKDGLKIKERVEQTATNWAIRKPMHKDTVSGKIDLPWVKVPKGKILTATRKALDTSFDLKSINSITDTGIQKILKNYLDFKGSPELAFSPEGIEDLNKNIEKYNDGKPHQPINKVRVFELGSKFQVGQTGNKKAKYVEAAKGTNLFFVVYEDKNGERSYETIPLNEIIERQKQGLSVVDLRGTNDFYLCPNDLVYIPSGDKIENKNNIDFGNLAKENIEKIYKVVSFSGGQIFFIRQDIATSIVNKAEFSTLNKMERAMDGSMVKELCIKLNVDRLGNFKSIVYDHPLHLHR

[3] = test system: T3, LPG10160 (Chryseobacterium ureilyticum); conditions: PAM SEQ ID 84; 35% pure protein
T3 sequence: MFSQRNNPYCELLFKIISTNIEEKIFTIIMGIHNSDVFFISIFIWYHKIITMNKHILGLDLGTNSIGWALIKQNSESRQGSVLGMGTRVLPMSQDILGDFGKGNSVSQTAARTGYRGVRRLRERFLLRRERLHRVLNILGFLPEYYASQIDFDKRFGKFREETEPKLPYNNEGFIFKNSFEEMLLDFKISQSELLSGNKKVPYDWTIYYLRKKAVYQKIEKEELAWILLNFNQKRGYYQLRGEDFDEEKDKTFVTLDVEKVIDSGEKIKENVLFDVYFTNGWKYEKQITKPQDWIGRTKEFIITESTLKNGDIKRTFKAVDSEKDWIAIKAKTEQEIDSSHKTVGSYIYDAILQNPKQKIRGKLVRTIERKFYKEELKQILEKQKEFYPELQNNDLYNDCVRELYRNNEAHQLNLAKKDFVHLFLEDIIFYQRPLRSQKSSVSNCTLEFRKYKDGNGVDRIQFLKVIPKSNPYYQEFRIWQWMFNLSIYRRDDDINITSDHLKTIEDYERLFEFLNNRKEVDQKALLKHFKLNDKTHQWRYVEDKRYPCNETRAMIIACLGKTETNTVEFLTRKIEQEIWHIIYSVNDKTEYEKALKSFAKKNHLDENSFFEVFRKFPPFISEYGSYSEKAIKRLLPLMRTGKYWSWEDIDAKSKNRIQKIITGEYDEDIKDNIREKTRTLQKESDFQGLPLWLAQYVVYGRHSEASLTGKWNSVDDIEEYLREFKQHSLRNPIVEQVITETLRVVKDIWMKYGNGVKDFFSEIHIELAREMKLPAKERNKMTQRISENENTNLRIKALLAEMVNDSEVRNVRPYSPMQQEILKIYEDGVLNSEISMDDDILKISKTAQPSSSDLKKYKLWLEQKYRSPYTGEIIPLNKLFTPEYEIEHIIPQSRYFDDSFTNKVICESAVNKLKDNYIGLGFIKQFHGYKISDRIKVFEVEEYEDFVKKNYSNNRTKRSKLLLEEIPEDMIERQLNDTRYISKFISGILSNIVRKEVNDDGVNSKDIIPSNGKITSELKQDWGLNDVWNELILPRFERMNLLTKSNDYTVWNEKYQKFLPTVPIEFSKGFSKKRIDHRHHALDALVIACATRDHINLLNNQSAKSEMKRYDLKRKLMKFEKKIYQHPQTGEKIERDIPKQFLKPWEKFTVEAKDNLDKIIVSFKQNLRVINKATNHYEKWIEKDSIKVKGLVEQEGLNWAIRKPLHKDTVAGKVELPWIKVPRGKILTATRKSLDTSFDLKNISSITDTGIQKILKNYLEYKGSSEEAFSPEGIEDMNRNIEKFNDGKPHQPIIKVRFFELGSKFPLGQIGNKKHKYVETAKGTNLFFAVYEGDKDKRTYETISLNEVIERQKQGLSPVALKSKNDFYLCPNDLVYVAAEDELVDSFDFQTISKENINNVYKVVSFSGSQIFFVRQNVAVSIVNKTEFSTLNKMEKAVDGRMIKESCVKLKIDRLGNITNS

| Sequence | activity (% target strand cleaved) [1] | activity (% target strand cleaved) [2] | activity (% target strand cleaved) [3] |
| --- | --- | --- | --- |
| CCAUGAUAUAGACGUUGUGGCUGUUGUAGUGUUGCCGCUGGCCUUCGAUUUCUGAAAAGUCAGAAAUCGAAGGCUGGCUGUUAACAAGCAGCUAGACUGCACCAAAUAAGGGCGGGGCUACGGCCCCGUCUUUU / GATATAGACGTTGTGGCTGTTGTAGTAGGACCTC / GAGGTCCTACTACAACAGCCACAACGTCTATATC [LPG10134 sgRNA L2 ; Library 2 target AGGACCTC] | 0 | – | – |
| GUUGCCGCUGGCCUUCGAUUUCUGAAAAGUCAGAAAUCGAAGGCUGGCUGUUAACAAGCAGCUAGACUGCACCAAAUAAGGGCGGGGCUACGGCCCCGUCUUUUGAGCGGACAGCAGCUUCCUAUAUCUCGUAC / GGACAGCAGCTTCCTATATCTCGTACAGGACCTC / GAGGTCCTGTACGAGATATAGGAAGCTGCTGTCC [LPG10134 sgRNA L1 ; Library 1 target AGGACCTC] | 0 | – | – |
| GUUGUGAAUUGCUUUAAAGAAAGCAAUUCACAAUAAGGAUUAUUCCGUUGUGAAAACAUCUAGCGCCUCGUCUAUCUACGGGGCAUUUU / GATATAGACGTTGTGGCTGTTGTAGTAGAAATTC / GAATTTCTACTACAACAGCCACAACGTCTATATC [LPG10155 sgRNA L2 ; Library 2 target AGAAATTC] | – | 7.6 | – |
| GUUGUGAAUUGCUUUAAAGAAAGCAAUUCACAAUAAGGAUUAUUCCGUUGUGAAAACAUCUAGCGCCUCGUCUAUCUACGGGGCAUUUU / GGACAGCAGCTTCCTATATCTCGTACAGAAATTC / GAATTTCTGTACGAGATATAGGAAGCTGCTGTCC [LPG10155 sgRNA L1 ; Library 1 target AGAAATTC] | – | 32.7 | – |
| GUUGUGAUUUGCUUUAAAGAAAGCAAUUCACAAUAAGGAUUAUUCCGUUGUGAAAACAUUUAAGCCCCCUCGUCUUACAAUACGGGGAUUU / GATATAGACGTTGTGGCTGTTGTAGTAAATATTC / GAATATTTACTACAACAGCCACAACGTCTATATC [LPG10160 sgRNA L2 ; Library 2 target AAATATTC] | – | – | 0 |
| GUUGUGAUUUGCUUUAAAGAAAGCAAUUCACAAUAAGGAUUAUUCCGUUGUGAAAACAUUUAAGCCCCCUCGUCUUACAAUACGGGGAUUU / GGACAGCAGCTTCCTATATCTCGTACAAATATTC / GAATATTTGTACGAGATATAGGAAGCTGCTGTCC [LPG10160 sgRNA L1 ; Library 1 target AAATATTC] | – | – | 0 |
